Assay: yeast display, Sf9 membrane polyspecificity reagent, FACS + sequencing; frameworks hold sequencing errors
Procedure, shortened: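 After 36–48 hours of galactose induction, yeast (Saccharomyces cerevisiae BJ5465) displaying a synthetic nanobody library were stained at 4 °C for 1 hour with 10% biotinylated, detergent-solubilized Sf9 membrane reagent. Streptavidin microbeads enriched the stained cells before FACS sorting into low and high (top ~1%) gates on anti-HA and streptavidin fluorescence. Each clone's polyreactivity label reflects its gate of origin.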

Sequence	polyreactivity (PSR sort gate)
QVQLVESGGGIVQAGGSLRLSCADSGFISVTYAMGWYRPAPGKERELDAAITYSGGSTYYADSVKGRYTISRDNAKNTVYLQMNSLKPEDTAVYYCAKKRRVVVLSVQGDYWGQGTQVTVSS	low polyreactivity
QVQLVESGGGIVQAGGSLRLSCPASGIIFYLNPMGWSRQAPGKERELVAAITRGGSTYYADSVKGRFTISRDNEKNTVYLQMNSLKPEDTAVYYWAAKHGPGYRRWYDYWGQGTQVTVSS	high polyreactivity
QVQLVESGGGIVQAGGSLRLSFAASGSTFNSNVMGWYRQAPGKERELVAAISRSGGNTYYADSVKGRFTISRDNAKNTVYLLMNSLKPEDTAVYYCNKAGRYPYDYWGQGTQVTVSS	high polyreactivity
QVQLVESGGGIVQAGGSLRLSSAASGRIFYRYAMGWYRQAPGKERELVASITRSGITHYADSVNGRFTISRDNAKNTVYLQMNSLKPEDTAVYYCNKRPWHRSSRPFYYWGQGTQVTVSS	high polyreactivity
QVQLVESGGGIVQAGGSLRLTCAASGRILGSNSIAWYRHAPGKERELVAAITSTGSTDYADSVKGRFTISRDNAKKTVYLQMNSLKPEDTAVYYCAADTSPYQDDYWGQGTQVTVSS	low polyreactivity
QVQLVESGGGIVQAGGSLSLSCAASGFNFGIYAMGWYRQAPGKEREFVAAITGSAGSTYYADSVKGRFTISLDNAKNTVYLQMNSLKPEDTAVYYCAAVLRTHRYGGYNYWGQGTQVTVSS	low polyreactivity
QVQLVESGGGIVQAGVSLRLSCAASGSTFRDYAMGWSRPAPGKERELVAAISNSGGRTYYADSVKGRFTISRDNAKNTVYLQMYSLKPEDTAVYYCNAGRQTKWGQGTQVTVSS	high polyreactivity
QVQLVESGGGIVQEGGSLRLSCAASGRIFGTNAMGWYRQAPGKERELVATITRGGGNTYYADSVKGRFTISRDNAKNTVYLQMKSLKPEDTAVYYCAAKFHRFAWYSHYDYWGQGTQVTVSS	low polyreactivity
QVQLVESGGGIVQEGGSLRLSCAASGSTFRDYAMGWYRQAPGKERELVAAISSRGATTYYADSVKGRFTISRDNAKNTVYLQMNSLKPEDTAVYYCNARQRRNPGGYGYWGQVTQVTVSS	high polyreactivity
QVQLVESGGGIVQPGGSLRLSCAASGSIFGYNAIGWYRQAPGKERELVAAISTSSGSTYYADSVKGRFTISRDNAKNTVFLQMNSLKPEDTAVYYCAARDRPFGRYDYWGQATQVTVSS	low polyreactivity
QVQLVESGGGKVQAGGSLRLSCAASGFILSRNAMGWYRQAPGKERELVAAISRSGTRTYYADSVKGRFTISRDNEQNTVYLQMNSLKPEDTAVYYCARVSKRTWTGYYYWGQGTQVTVSS	high polyreactivity
QVQLVESGGGKVQAGGSLRLSCAASGRIFSVYTMGWYSQAPGKERELVAAISSGASTNYADSVKGRFTISRDNAKNTVYLQMNSLKPEDTAVEYCNAQWYLRLGASKTWVDVDYWGQGTQVTVSS	low polyreactivity
QVQLVESGGGKVQAGGSLRLSCAPSGSIFFSYAMGWYRQAPGKERELVAAISGSGTSTYYADSVKGRFTISRDNAKNTVYLQMNSLKPEDTAVYYCPTDGGAAWGRYYWDYGYWGQGTQVTVSS	low polyreactivity
QVQLVESGGGKVQAGGSLSLSCAASGSTFVVNAMGWYRQAPGKERELVAAIDGSDGSTYYADSEKGRFTISRDNAKNTVYLQMNSLKPEDTAVYYCAAEVLGRPDVENDYWGQGTKVTVSS	low polyreactivity
QVQLVESGGGLAQAGGSLRLSCAASGNILRINGMGWYRQAPGKERELVASITRSGSTYYADSVKGRFTISRDNAKNTVYLQMNSLKPEDTAVYYCAADSRRYGVRFDYWGQGTQVTVSS	low polyreactivity
QVQLVESGGGLAQAGGSLRLSCAASGSTFNSNAMGWSRQAPGKERELVAAISRSGGRTYYADSVKGRFTISRDIAKNTVYLQMNSLKPEDTAVYYCAAGCQYISRRGYDYWGQGTQVTVSS	high polyreactivity
QVQLVESGGGLDLAGGSLRLSCAASGSTFWRYAMGWYCQAPGKERELVAAISYTGTSTYSADSVKGRFTISRDNAKNTVYLQMNSLKPEDTAVYYCAAVFVGLVTGYDYSWGQGTQVNVSS	low polyreactivity
QVQLVESGGGLDQAAGSLRLSCAASGSIFDAYMRWYIQAPGKERELVAGITRSGGSTYYADSVKGRFTISRDNAKIKVYLQMNSLKPEDTAVDFCAADYSSDGDYWGLGTQVTVSS	low polyreactivity
QVQLVESGGGLDQAGGCLRLSCAASGRIFKYNAMGWYRQAPGTERELVAAISWNGDSTYYADSVKGRFTISRDIAKYTVYLQMNRLKPEDTAVYYCAVTGDYDMEYWGQGTQVTVSS	low polyreactivity
QVQLVESGGGLDQAGGRLRLSCAASGSIFSIYAMGRYRQAPGKERELVAAISSGGSTYADSVKGRFTISRDNAKNTVYLQMNSLKPEDTAVYYCAADRRGYRGYDYWGQGTQVTVSS	low polyreactivity
QVQLVESGGGLDQAGGRLRLSCPASGRIFQANAMGRYRQAPGKERELVAAITNRGGSTYADSVKGRFTISRDNAKNTVYLQMNSLKPEDTAVYYCAADVSRYVQRDNYWGQGTQVTVSS	low polyreactivity

Sequence	polyreactivity (PSR sort gate)
QVQLVESGGGLDQAGGRLRLSSAASGTTFAVNAMGWYRQAPGKERELVAAITSGGSTKYADSVKGRFTISRDNAKYSVYFQMNSLKREDSAVYYIPDSKLWALGWKFYYWGQGTQVTVSS	low polyreactivity
QVQLVESGGGLDQAGGSHRLSCAASGFTFSGYAMGWYRQAPGTESELVAAMTRRGGSTYYADSVKGRFTISRDNAKNTVYLHLNSLKPEDTAVYYCAADSGYPWELDYWGQGTQVTVSS	low polyreactivity
QVQLVESGGGLDQAGGSHRLSCAASGRTFPGNAMGWYRQAPGKERELVAAISWSGSRTYYADSLKGRFTISRDNAKNTVYLHMTRMKPEDTAVYYCNVVVKGAWEYYPYDYWGQGTEVTVSS	high polyreactivity
QVQLVESGGGLDQAGGSLRISCAASGSTLLGNAMGWYRQAPGKERELVAAISTSGDSTNYADSVKGRFTISRDNAKNTVYLQMNSLKPEDTAVYYCNAGGYLISDVDRVGYWGQGTQVTVSS	low polyreactivity
QVQLVESGGGLDQAGGSLRLICAASGIIFASNAMGWYRQAPGKERELVATITGSVAGTYYADSVKGRFTISRDNAKPTVYLQMNSLKPEDTAVYDCAAKRGWNVAGYDYWGQRTQVTVSS	low polyreactivity
QVQLVESGGGLDQAGGSLRLICAASGLTFPYYARGWSIQAPGKEMEVVAGITDDGGDTYYADSVKGRLTISRDYAKNTVYLQMNSLKPEDTAVYFCAADGWFQGWFGYGYWGQGTQVTVSS	high polyreactivity
QVQLVESGGGLDQAGGSLRLICAASGRTYDTNAMGWYRQAPGKEREFVAAINTGGNTYYADSVKGRFTISRDNAKNTVYLQMNSLIPEDTAVYYSAAYYYYFYHKVIWYELDYWGQGTQVTLSS	low polyreactivity
QVQLVESGGGLDQAGGSLRLSCAASGFIFIQNDMGWYRQAPGKEREFVASISKDGGRTYYADSVKGRFTISRDNAKNTVYLQMNSLKPEDTAVVYCNTYPRGNWGNFVEQDYDYWGHGTQVTVSS	low polyreactivity
QVQLVESGGGLDQAGGSLRLSCAASGFIFITYEMGWYRQAPGKQMELVAVITSGGTTNYADSVKGRFTISRDNAKNTVYLQMNSLKPEDTAVYYCAAEDYVIGDSGYDYWGQGTQVTVSS	low polyreactivity
QVQLVESGGGLDQAGGSLRLSCAASGFIFNKYALGRSRQAPGTEREFVATIRRDGSTNYADSVKGRFTISRDNAKNTVYLQMNSLKPEDTAVYSCAKRPWYHADWWDDHWGQGTQVTVSS	high polyreactivity
QVQLVESGGGLDQAGGSLRLSCAASGFIFRAYAMGLYRQAPGKERELVAAISWGGGSTYYADSVKGRFTISRDNAKNTVYLQMNSLKPEDTAVYYCAAEYEAYAYEYWGQGTQVTVSS	high polyreactivity
QVQLVESGGGLDQAGGSLRLSCAASGFIFWRNTMGWYRPAPGKERELVAVITRGGSTYYADSVKGRFTISRDTAKNTVYLQMNSLKPEDTAVYNSAARNDYFKTFSGYDYWGQGTQVTVSS	low polyreactivity
QVQLVESGGGLDQAGGSLRLSCAASGFIFYDYDMGWYRQAPGKERELVAAISDGGSTNYADSVKGRFTISRDNAKNTVYFQRNSLKPEDTAVYYCAKDGFVYYDYFQYIEYDYWGQGTQVTVSS	low polyreactivity
QVQLVESGGGLDQAGGSLRLSCAASGFTFWRYAMGWYRQAPGKERELVAAISWSGGSTYYADSVKGRFTISRDNAKNTVYLQMNSLKPEDTAVYYCTAQYGSRSYRYGYWGQGTQVTVSS	high polyreactivity
QVQLVESGGGLDQAGGSLRLSCAASGFTFYPNAMGWYRQAPGKERELVAAINSGGSTYYADSVKGRFTISRDNAKNTVYLQMNSLKPEDTAVYYCAAYGKRGAVAFYYWGQGTQVTVSS	high polyreactivity
QVQLVESGGGLDQAGGSLRLSCAASGFTFYPYAMGWYRQAPGKERELVASITSAGGTNYADSVKGRFTISRDNAKNTVYVQLNSLKPEDTAVYYCAAKYRSRGPDYYFNSDYWGQGTQVTVSS	low polyreactivity
QVQLVESGGGLDQAGGSLRLSCAASGFTLDYYAMGWYRQAPGKERELVAAISWSGGRTYYADSVKGRFTISRDNAKNTVYLQMNSLKPEDTAVYYCNASPYGRKYGILADGDYWGQGTQVTVSS	high polyreactivity
QVQLVESGGGLDQAGGSLRLSCAASGFTSYLYTMGWYRQAPGKERELVAAISNSGGNTYYADSLKGRFTISRDIAKKTVYLQMNSLKPEDTAVYYCAAVRRISRYDYWGQGTQVTVSS	high polyreactivity
QVQLVESGGGLDQAGGSLRLSCAASGIIFWYYAMGWYRQAPGKEMELVAAINWNGDSTHYADSVKGRFTISRDNAKNTVYLQMNILKPEDTAVYYCAARTYTLRGVYFSGYNYWGQATQVTVSS	low polyreactivity
QVQLVESGGGLDQAGGSLRLSCAASGISFIIYVMGWYRQAPGKERELVAAISSTGSTYYADSVKGRFTISRDNAKNTVYLQMNSQKPEDTAVYYCAKRKFTARQRYNYWGQGTQVTVSS	high polyreactivity

Reference: the nanobody polyreactivity screen of Harvey et al. (2022)
